Experimental findings from patent publication US5681819 are described below.

Test [1] deals with receptor on the rat intestine surface that binds the C-tail of BAL (CT-receptors).
For test [2] the target is unchanged. This is another data set of the same source.
For test [3], the target named is receptor on the mouse small intestine surface that binds the C-tail of BAL (CT receptor). The test can be described thus: 125I-labelled protein retained in ligated mouse small intestine segments after washing; mean of 3 experiments.
Test [4] deals with receptor on the rat intestine surface that binds the C-tail of BAL (CT-receptors). This is another data set of the same source.

In the case of “rat endogenous intestinal BAL (from UniProt P07882) (enzyme)”, the cholesterol uptake of rat intestine after removal of bound BAL with EGTA in test [1] was 16 % of control.

B1: isolated C-tail of human milk BAL (protein)
chain: ALPTVTDQEATPVPPTGDSEATPVPPTGDSETAPVPPTGDSGAPPVPPTGDSGAPPVPPTGDSGAPPVPPTGDSGAPPVPPTGDSGAPPVPPTGDSGAPPVPPTGDSGAPPVPPTGDAGPPPVPPTGDSGAPPVPPTGDSGAPPVTPTGDSETAPVPPTGDSGAPPVPPTGDSEAAPVPPTDDSK
modifications: about 8 to 10 O-linked oligosaccharides per C-tail molecule, most if not all on threonine (fucose, galactose, galactosamine, glucosamine)
As to B1, in test [2], the cholesterol uptake of rat intestine segments from 3H cholesterol oleate is 10 % of control.

B2: native human milk bile salt-activated lipase (enzyme)
chain: AKLGAVYTEGGFVEGVNKKLGLLGDSVDIFKGIPFAAPTKALENPQPHPGWQGTLKAKNFKKRCLQATITQDSTYGDEDCLYLNIWVPQGRKQVSRDLPVMIWIYGGAFLMGSGHGANFLNNYLYDGEEIATRGNVIVVTFNYRVGPLGFLSTGDANLPGNYGLRDQHMAIAWVKRNIAAFGGDPNNITLFGESAGGASVSLQTLSPYNKGLIRRAISQSGVALSPWVIQKNPLFWAKKVAEKVGCPVGDAARMAQCLKVTDPRALTLAYKVPLAGLEYPMLHYVGFVPVIDGDFIPADPINLYANAADIDYIAGTNNMDGHIFASIDMPAINKGNKKVTEEDFYKLVSEFTITKGLRGAKTTFDVYTESWAQDPSQENKKKTVVDFETDVLFLVPTEIALAQHRANAKSAKTYAYLFSHPSRMPVYPKWVGADHADDIQYVFGKPFATPTGYRPQDRTVSKAMIAYWTNFAKTGDPNMGDSAVPTHWEPYTTENSGYLEITKKMGSSSMKRSLRTNFLRYWTLTYLALPTVTDQEATPVPPTGDSEATPVPPTGDSETAPVPPTGDSGAPPVPPTGDSGAPPVPPTGDSGAPPVPPTGDSGAPPVPPTGDSGAPPVPPTGDSGAPPVPPTGDSGAPPVPPTGDAGPPPVPPTGDSGAPPVPPTGDSGAPPVTPTGDSETAPVPPTGDSGAPPVPPTGDSEAAPVPPTDDSKEAQMPAVIRF
modifications: O-linked oligosaccharides in the C-tail, primarily on threonine; 125I-labelled in the mouse intestine binding experiment
For the molecule B2, in test [3], the Bound is 384 ng/cm. The same molecule had a Cholesterol Uptake in test [4] of 14.4 nmol/g/h.

B3: recombinant truncated form of bile salt-activated lipase (T-BAL, residues 1-538 lacking the carboxy terminal end) (enzyme)
chain: AKLGAVYTEGGFVEGVNKKLGLLGDSVDIFKGIPFAAPTKALENPQPHPGWQGTLKAKNFKKRCLQATITQDSTYGDEDCLYLNIWVPQGRKQVSRDLPVMIWIYGGAFLMGSGHGANFLNNYLYDGEEIATRGNVIVVTFNYRVGPLGFLSTGDANLPGNYGLRDQHMAIAWVKRNIAAFGGDPNNITLFGESAGGASVSLQTLSPYNKGLIRRAISQSGVALSPWVIQKNPLFWAKKVAEKVGCPVGDAARMAQCLKVTDPRALTLAYKVPLAGLEYPMLHYVGFVPVIDGDFIPADPINLYANAADIDYIAGTNNMDGHIFASIDMPAINKGNKKVTEEDFYKLVSEFTITKGLRGAKTTFDVYTESWAQDPSQENKKKTVVDFETDVLFLVPTEIALAQHRANAKSAKTYAYLFSHPSRMPVYPKWVGADHADDIQYVFGKPFATPTGYRPQDRTVSKAMIAYWTNFAKTGDPNMGDSAVPTHWEPYTTENSGYLEITKKMGSSSMKRSLRTNFLRYWTLTYLALPTVTDQEAT
modifications: not glycosylated (expressed in E. coli); 125I-labelled in the mouse intestine binding experiment
In test [3], B3 displayed a Bound of 33 ng/cm. This molecule also returned a Cholesterol Uptake in test [4] of 7.32 nmol/g/h.
